Measured values published in paper PMC7023979.

Target: SIVrcm integrase A119D (simian immunodeficiency virus from red-capped mangabeys (SIVrcm))
Assay: cryo-EM structure

## SIVrcm integrase A119D (enzyme)
  stoichiometry N: 4
